Data reported in patent publication US20090105152A1.
Numbered stars: 1 amine (or outer) side, 2 acyl side, 3 side chain; on linkers, the order of the positions; unused ones are H or OH. Square brackets hold non-standard residues; d marks the D form. Phe(3R-OH) = O=C([C@@H](N[*:1])[C@H](O[*:3])c1ccccc1)[*:2]; Arg(Me) = CNC(=N)NCCC[C@H](N)C(=O)O; Hyp = O=C(O)[C@@H]1C[C@@H](O)CN1; azaGly = NNC(=O)O

Target: human OT7T175 (metastin receptor) (human) (UniProt Q969F8)
Test: cell-based or functional assay

Chain of human OT7T175 (metastin receptor) (human) (Q969F8 whole entry L364H): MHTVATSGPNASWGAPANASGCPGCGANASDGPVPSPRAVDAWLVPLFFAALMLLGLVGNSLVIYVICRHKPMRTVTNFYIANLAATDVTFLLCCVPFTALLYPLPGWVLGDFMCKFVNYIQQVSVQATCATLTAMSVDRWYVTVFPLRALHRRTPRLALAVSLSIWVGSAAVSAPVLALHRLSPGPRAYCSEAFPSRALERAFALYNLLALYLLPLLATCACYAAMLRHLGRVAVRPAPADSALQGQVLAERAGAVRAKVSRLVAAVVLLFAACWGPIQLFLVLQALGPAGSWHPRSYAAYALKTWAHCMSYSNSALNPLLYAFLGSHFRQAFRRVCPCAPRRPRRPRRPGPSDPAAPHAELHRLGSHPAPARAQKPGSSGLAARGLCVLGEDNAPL

intracellular Ca ion level-increasing activity [specific activity to Metastin (1-54)] (relative to Metastin (1-54)): 1
B1: des(1)-Ac-[D-Tyr2,Hyp3,Thr5,threo-Ser(3Phenyl)6,AzaGly7,Arg(Me)9,Trp10]MS10 (peptide)
peptide: Ac-[dY][Hyp]NT[Phe(3R-OH)][azaGly]L[Arg(Me)]W-NH2
SMILES: CNC(=N)NCCC[C@H](NC(=O)[C@H](CC(C)C)NC(=O)NNC(=O)[C@@H](NC(=O)[C@@H](NC(=O)[C@H](CC(N)=O)NC(=O)[C@@H]1C[C@@H](O)CN1C(=O)[C@@H](Cc1ccc(O)cc1)NC(C)=O)[C@@H](C)O)[C@H](O)c1ccccc1)C(=O)N[C@@H](Cc1c[nH]c2ccccc12)C(N)=O
